B1: library; numbered along this chain (parent)
chain: MRKPRAAVGSGHRKQAASQEGRQKHAKNNSQAKPSACDGLARQPEEVVLQASVSSYHLFRDVAEVTAFRGSLLSWYDQEKRDLPWRRRAEDEMDLDRRAYAVWVSEVMLQQTQVATVINYYTGWMQKWPTLQDLASASLEEVNQLWAGLGYYSRGRRLQEGARKVVEELGGHMPRTAETLQQLLPGVGRYTAGAIASIAFGQATGVVDGNVARVLCRVRAIGADPSSTLVSQQLWGLAQQLVDPARPGDFNQAAMELGATVCTPQRPLCSQCPVESLCRARQRVEQEQLLASGSLSGSPDVEECAPNTGQCHLCLPPSEPWDQTLGVVNFPRKASRKPPREESSATCVLEQPGALGAQILLVQRPNSGLLAGLWEFPSVTWEPSEQLQRKALLQELQRWAGPLPATHLRHLGEVVHTFSHIKLTYQVYGLALEGQTPVTTVPPGARWLTQEEFHTAAVSTAMKKVFRVYQGQQPGTCMGSKRSQVSSPCSRKKPRMGQQVLDNFFRSHISTDAHSLNSAAQ

Variants of: B1
Assay: 8OG:A repair function score (normalized; synonymous = 0, nonsense = -1) (normalized log-likelihood score); higher = more repair activity (WT-like)
Conditions: with 8OG:A DNA repair reporter (GFP) in HEK-293 MUTYH KO cells
Method in brief: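 Per-tile Rosace fitness scores were converted to a normalized repair function score anchored on synonymous and nonsense distributions. That scale puts synonymous medians at 0 and nonsense medians at -1. Variants with starting counts under 300 counts per million were discarded. Input came from sorting viable mCherry+ MUTYH knockout HEK-293 cells, carrying lentiviral MUTYH cDNA NNN codon-scan libraries in 10 pg/ml doxycycline and an 8OG:A GFP repair reporter, into GFP+ and GFP− bins at 72 h, three replicates per tile, followed by tile amplicon sequencing.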
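Also: cells sorted at 72 h after reporter transfection.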

Variant	8OG:A repair function score
MRKPRAAVGSGHRKQAASQEGRQKHAKNNSQAKPSACDGLARQPEEVVLQASVSSYHLFRDVAEVTAFRGSLLSWYDQEKRDLPWRRRAEDEMDLDRRAYAVWVSEVMLQQTQVATVINYYTGWMQKWPTLQDLASASLEEVNQLWAGLGYYSRGRRLQEGARKVVEELGGHMPRTAETLQQLLPGVGRYTAGAIASIAFGQSTGVVDGNVARVLCRVRAIGADPSSTLVSQQLWGLAQQLVDPARPGDFNQAAMELGATVCTPQRPLCSQCPVESLCRARQRVEQEQLLASGSLSGSPDVEECAPNTGQCHLCLPPSEPWDQTLGVVNFPRKASRKPPREESSATCVLEQPGALGAQILLVQRPNSGLLAGLWEFPSVTWEPSEQLQRKALLQELQRWAGPLPATHLRHLGEVVHTFSHIKLTYQVYGLALEGQTPVTTVPPGARWLTQEEFHTAAVSTAMKKVFRVYQGQQPGTCMGSKRSQVSSPCSRKKPRMGQQVLDNFFRSHISTDAHSLNSAAQ [A203S]	-0.0724
MRKPRAAVGSGHRKQAASQEGRQKHAKNNSQAKPSACDGLARQPEEVVLQASVSSYHLFRDVAEVTAFRGSLLSWYDQEKRDLPWRRRAEDEMDLDRRAYAVWVSEVMLQQTQVATVINYYTGWMQKWPTLQDLASASLEEVNQLWAGLGYYSRGRRLQEGARKVVEELGGHMPRTAETLQQLLPGVGRYTAGAIASIAFGQPTGVVDGNVARVLCRVRAIGADPSSTLVSQQLWGLAQQLVDPARPGDFNQAAMELGATVCTPQRPLCSQCPVESLCRARQRVEQEQLLASGSLSGSPDVEECAPNTGQCHLCLPPSEPWDQTLGVVNFPRKASRKPPREESSATCVLEQPGALGAQILLVQRPNSGLLAGLWEFPSVTWEPSEQLQRKALLQELQRWAGPLPATHLRHLGEVVHTFSHIKLTYQVYGLALEGQTPVTTVPPGARWLTQEEFHTAAVSTAMKKVFRVYQGQQPGTCMGSKRSQVSSPCSRKKPRMGQQVLDNFFRSHISTDAHSLNSAAQ [A203P]	0.109
MRKPRAAVGSGHRKQAASQEGRQKHAKNNSQAKPSACDGLARQPEEVVLQASVSSYHLFRDVAEVTAFRGSLLSWYDQEKRDLPWRRRAEDEMDLDRRAYAVWVSEVMLQQTQVATVINYYTGWMQKWPTLQDLASASLEEVNQLWAGLGYYSRGRRLQEGARKVVEELGGHMPRTAETLQQLLPGVGRYTAGAIASIAFGQWTGVVDGNVARVLCRVRAIGADPSSTLVSQQLWGLAQQLVDPARPGDFNQAAMELGATVCTPQRPLCSQCPVESLCRARQRVEQEQLLASGSLSGSPDVEECAPNTGQCHLCLPPSEPWDQTLGVVNFPRKASRKPPREESSATCVLEQPGALGAQILLVQRPNSGLLAGLWEFPSVTWEPSEQLQRKALLQELQRWAGPLPATHLRHLGEVVHTFSHIKLTYQVYGLALEGQTPVTTVPPGARWLTQEEFHTAAVSTAMKKVFRVYQGQQPGTCMGSKRSQVSSPCSRKKPRMGQQVLDNFFRSHISTDAHSLNSAAQ [A203W]	-0.183
MRKPRAAVGSGHRKQAASQEGRQKHAKNNSQAKPSACDGLARQPEEVVLQASVSSYHLFRDVAEVTAFRGSLLSWYDQEKRDLPWRRRAEDEMDLDRRAYAVWVSEVMLQQTQVATVINYYTGWMQKWPTLQDLASASLEEVNQLWAGLGYYSRGRRLQEGARKVVEELGGHMPRTAETLQQLLPGVGRYTAGAIASIAFGQYTGVVDGNVARVLCRVRAIGADPSSTLVSQQLWGLAQQLVDPARPGDFNQAAMELGATVCTPQRPLCSQCPVESLCRARQRVEQEQLLASGSLSGSPDVEECAPNTGQCHLCLPPSEPWDQTLGVVNFPRKASRKPPREESSATCVLEQPGALGAQILLVQRPNSGLLAGLWEFPSVTWEPSEQLQRKALLQELQRWAGPLPATHLRHLGEVVHTFSHIKLTYQVYGLALEGQTPVTTVPPGARWLTQEEFHTAAVSTAMKKVFRVYQGQQPGTCMGSKRSQVSSPCSRKKPRMGQQVLDNFFRSHISTDAHSLNSAAQ [A203Y]	-0.245
MRKPRAAVGSGHRKQAASQEGRQKHAKNNSQAKPSACDGLARQPEEVVLQASVSSYHLFRDVAEVTAFRGSLLSWYDQEKRDLPWRRRAEDEMDLDRRAYAVWVSEVMLQQTQVATVINYYTGWMQKWPTLQDLASASLEEVNQLWAGLGYYSRGRRLQEGARKVVEELGGHMPRTAETLQQLLPGVGRYTAGAIASIAFGQQTGVVDGNVARVLCRVRAIGADPSSTLVSQQLWGLAQQLVDPARPGDFNQAAMELGATVCTPQRPLCSQCPVESLCRARQRVEQEQLLASGSLSGSPDVEECAPNTGQCHLCLPPSEPWDQTLGVVNFPRKASRKPPREESSATCVLEQPGALGAQILLVQRPNSGLLAGLWEFPSVTWEPSEQLQRKALLQELQRWAGPLPATHLRHLGEVVHTFSHIKLTYQVYGLALEGQTPVTTVPPGARWLTQEEFHTAAVSTAMKKVFRVYQGQQPGTCMGSKRSQVSSPCSRKKPRMGQQVLDNFFRSHISTDAHSLNSAAQ [A203Q]	0.0356
MRKPRAAVGSGHRKQAASQEGRQKHAKNNSQAKPSACDGLARQPEEVVLQASVSSYHLFRDVAEVTAFRGSLLSWYDQEKRDLPWRRRAEDEMDLDRRAYAVWVSEVMLQQTQVATVINYYTGWMQKWPTLQDLASASLEEVNQLWAGLGYYSRGRRLQEGARKVVEELGGHMPRTAETLQQLLPGVGRYTAGAIASIAFGQVTGVVDGNVARVLCRVRAIGADPSSTLVSQQLWGLAQQLVDPARPGDFNQAAMELGATVCTPQRPLCSQCPVESLCRARQRVEQEQLLASGSLSGSPDVEECAPNTGQCHLCLPPSEPWDQTLGVVNFPRKASRKPPREESSATCVLEQPGALGAQILLVQRPNSGLLAGLWEFPSVTWEPSEQLQRKALLQELQRWAGPLPATHLRHLGEVVHTFSHIKLTYQVYGLALEGQTPVTTVPPGARWLTQEEFHTAAVSTAMKKVFRVYQGQQPGTCMGSKRSQVSSPCSRKKPRMGQQVLDNFFRSHISTDAHSLNSAAQ [A203V]	0.0414
MRKPRAAVGSGHRKQAASQEGRQKHAKNNSQAKPSACDGLARQPEEVVLQASVSSYHLFRDVAEVTAFRGSLLSWYDQEKRDLPWRRRAEDEMDLDRRAYAVWVSEVMLQQTQVATVINYYTGWMQKWPTLQDLASASLEEVNQLWAGLGYYSRGRRLQEGARKVVEELGGHMPRTAETLQQLLPGVGRYTAGAIASIAFGQNTGVVDGNVARVLCRVRAIGADPSSTLVSQQLWGLAQQLVDPARPGDFNQAAMELGATVCTPQRPLCSQCPVESLCRARQRVEQEQLLASGSLSGSPDVEECAPNTGQCHLCLPPSEPWDQTLGVVNFPRKASRKPPREESSATCVLEQPGALGAQILLVQRPNSGLLAGLWEFPSVTWEPSEQLQRKALLQELQRWAGPLPATHLRHLGEVVHTFSHIKLTYQVYGLALEGQTPVTTVPPGARWLTQEEFHTAAVSTAMKKVFRVYQGQQPGTCMGSKRSQVSSPCSRKKPRMGQQVLDNFFRSHISTDAHSLNSAAQ [A203N]	-0.000873
MRKPRAAVGSGHRKQAASQEGRQKHAKNNSQAKPSACDGLARQPEEVVLQASVSSYHLFRDVAEVTAFRGSLLSWYDQEKRDLPWRRRAEDEMDLDRRAYAVWVSEVMLQQTQVATVINYYTGWMQKWPTLQDLASASLEEVNQLWAGLGYYSRGRRLQEGARKVVEELGGHMPRTAETLQQLLPGVGRYTAGAIASIAFGQMTGVVDGNVARVLCRVRAIGADPSSTLVSQQLWGLAQQLVDPARPGDFNQAAMELGATVCTPQRPLCSQCPVESLCRARQRVEQEQLLASGSLSGSPDVEECAPNTGQCHLCLPPSEPWDQTLGVVNFPRKASRKPPREESSATCVLEQPGALGAQILLVQRPNSGLLAGLWEFPSVTWEPSEQLQRKALLQELQRWAGPLPATHLRHLGEVVHTFSHIKLTYQVYGLALEGQTPVTTVPPGARWLTQEEFHTAAVSTAMKKVFRVYQGQQPGTCMGSKRSQVSSPCSRKKPRMGQQVLDNFFRSHISTDAHSLNSAAQ [A203M]	-0.0505
MRKPRAAVGSGHRKQAASQEGRQKHAKNNSQAKPSACDGLARQPEEVVLQASVSSYHLFRDVAEVTAFRGSLLSWYDQEKRDLPWRRRAEDEMDLDRRAYAVWVSEVMLQQTQVATVINYYTGWMQKWPTLQDLASASLEEVNQLWAGLGYYSRGRRLQEGARKVVEELGGHMPRTAETLQQLLPGVGRYTAGAIASIAFGQRTGVVDGNVARVLCRVRAIGADPSSTLVSQQLWGLAQQLVDPARPGDFNQAAMELGATVCTPQRPLCSQCPVESLCRARQRVEQEQLLASGSLSGSPDVEECAPNTGQCHLCLPPSEPWDQTLGVVNFPRKASRKPPREESSATCVLEQPGALGAQILLVQRPNSGLLAGLWEFPSVTWEPSEQLQRKALLQELQRWAGPLPATHLRHLGEVVHTFSHIKLTYQVYGLALEGQTPVTTVPPGARWLTQEEFHTAAVSTAMKKVFRVYQGQQPGTCMGSKRSQVSSPCSRKKPRMGQQVLDNFFRSHISTDAHSLNSAAQ [A203R]	0.00374
MRKPRAAVGSGHRKQAASQEGRQKHAKNNSQAKPSACDGLARQPEEVVLQASVSSYHLFRDVAEVTAFRGSLLSWYDQEKRDLPWRRRAEDEMDLDRRAYAVWVSEVMLQQTQVATVINYYTGWMQKWPTLQDLASASLEEVNQLWAGLGYYSRGRRLQEGARKVVEELGGHMPRTAETLQQLLPGVGRYTAGAIASIAFGQKTGVVDGNVARVLCRVRAIGADPSSTLVSQQLWGLAQQLVDPARPGDFNQAAMELGATVCTPQRPLCSQCPVESLCRARQRVEQEQLLASGSLSGSPDVEECAPNTGQCHLCLPPSEPWDQTLGVVNFPRKASRKPPREESSATCVLEQPGALGAQILLVQRPNSGLLAGLWEFPSVTWEPSEQLQRKALLQELQRWAGPLPATHLRHLGEVVHTFSHIKLTYQVYGLALEGQTPVTTVPPGARWLTQEEFHTAAVSTAMKKVFRVYQGQQPGTCMGSKRSQVSSPCSRKKPRMGQQVLDNFFRSHISTDAHSLNSAAQ [A203K]	0.0825
MRKPRAAVGSGHRKQAASQEGRQKHAKNNSQAKPSACDGLARQPEEVVLQASVSSYHLFRDVAEVTAFRGSLLSWYDQEKRDLPWRRRAEDEMDLDRRAYAVWVSEVMLQQTQVATVINYYTGWMQKWPTLQDLASASLEEVNQLWAGLGYYSRGRRLQEGARKVVEELGGHMPRTAETLQQLLPGVGRYTAGAIASIAFGQTTGVVDGNVARVLCRVRAIGADPSSTLVSQQLWGLAQQLVDPARPGDFNQAAMELGATVCTPQRPLCSQCPVESLCRARQRVEQEQLLASGSLSGSPDVEECAPNTGQCHLCLPPSEPWDQTLGVVNFPRKASRKPPREESSATCVLEQPGALGAQILLVQRPNSGLLAGLWEFPSVTWEPSEQLQRKALLQELQRWAGPLPATHLRHLGEVVHTFSHIKLTYQVYGLALEGQTPVTTVPPGARWLTQEEFHTAAVSTAMKKVFRVYQGQQPGTCMGSKRSQVSSPCSRKKPRMGQQVLDNFFRSHISTDAHSLNSAAQ [A203T]	0.03
MRKPRAAVGSGHRKQAASQEGRQKHAKNNSQAKPSACDGLARQPEEVVLQASVSSYHLFRDVAEVTAFRGSLLSWYDQEKRDLPWRRRAEDEMDLDRRAYAVWVSEVMLQQTQVATVINYYTGWMQKWPTLQDLASASLEEVNQLWAGLGYYSRGRRLQEGARKVVEELGGHMPRTAETLQQLLPGVGRYTAGAIASIAFGQLTGVVDGNVARVLCRVRAIGADPSSTLVSQQLWGLAQQLVDPARPGDFNQAAMELGATVCTPQRPLCSQCPVESLCRARQRVEQEQLLASGSLSGSPDVEECAPNTGQCHLCLPPSEPWDQTLGVVNFPRKASRKPPREESSATCVLEQPGALGAQILLVQRPNSGLLAGLWEFPSVTWEPSEQLQRKALLQELQRWAGPLPATHLRHLGEVVHTFSHIKLTYQVYGLALEGQTPVTTVPPGARWLTQEEFHTAAVSTAMKKVFRVYQGQQPGTCMGSKRSQVSSPCSRKKPRMGQQVLDNFFRSHISTDAHSLNSAAQ [A203L]	-0.0917
